Laboratory results reported in patent US20150086555A1.

Legend:
Conditions in all cases: remark: other sources report otherwise
[1] = target: T1, recombinant soluble homotrimeric HA of A/Vietnam/1203/04 (H5N1) (Influenza A virus A/VietNam/1203/2004(H5N1)); assay: trimeric HA microarray, transfection supernatant set 5
[2] = target: recombinant soluble homotrimeric HA of A/South Carolina/1/18 (H1N1) (Influenza A virus A/South Carolina/1/18 (H1N1)); assay: as above
[3] = target: T2, recombinant soluble homotrimeric HA of A/chicken/Vietnam/NCVD-016/08 (H5N1) (Influenza A virus A/chicken/Vietnam/NCVD-016/2008(H5N1)); assay: as above
[4] = target: recombinant soluble homotrimeric HA of A/swine/Ontario/01911-2/99 (H4N6) (Influenza A virus A/Swine/Ontario/01911-2/99 (H4N6)); assay: as above
[5] = target: T3, recombinant soluble homotrimeric HA of A/Wisconsin/67/05 (H3N2) (Influenza A virus A/Wisconsin/67/2005(H3N2)); assay: as above
[6] = target: T4, recombinant soluble homotrimeric HA of A/Japan/305/57 (H2N2) (Influenza A virus A/Japan/305/1957(H2N2)); assay: as above
[7] = target: recombinant soluble homotrimeric HA of A/duck/Yangzhou/02/05 (H8N4) (Influenza A virus A/duck/Yangzhou/02/2005(H8N4)); assay: as above
[8] = target: recombinant homotrimeric HA A/California/4/09 H1N1 (Influenza A virus A/California/04/2009(H1N1)); assay: protein microarray, purified IgG, trimeric HA
[9] = target: recombinant homotrimeric HA A/Japan/305/57 H2N2 (Influenza A virus A/Japan/305/1957(H2N2)); assay: protein microarray, purified IgG, trimeric HA
[10] = target: recombinant homotrimeric HA A/Wisconsin/67/05 H3N2 (Influenza A virus A/Wisconsin/67/2005(H3N2)); assay: protein microarray, purified IgG, trimeric HA
[11] = target: recombinant homotrimeric HA A/South Carolina/1/18 H1N1 (Influenza A virus A/South Carolina/1/18 (H1N1)); assay: protein microarray, purified IgG, trimeric HA
[12] = target: recombinant homotrimeric HA A/Hong Kong/2108/03 H9N2 (Influenza A virus A/HK/2108/2003(H9N2)); assay: protein microarray, purified IgG, trimeric HA
[13] = target: recombinant homotrimeric HA A/duck/Yangzhou/02/05 H8N4 (Influenza A virus A/duck/Yangzhou/02/2005(H8N4)); assay: protein microarray, purified IgG, trimeric HA
[14] = target: recombinant homotrimeric HA A/Egypt/3300-NAMRU3/08 H5N1 (Influenza A virus A/Egypt/3300-NAMRU3/2008(H5N1)); assay: protein microarray, purified IgG, trimeric HA
[15] = target: recombinant homotrimeric HA A/Indonesia/5/05 H5N1 (Influenza A virus A/Indonesia/5/2005(H5N1)); assay: protein microarray, purified IgG, trimeric HA
[16] = target: recombinant homotrimeric HA A/chicken/Vietnam/NCVD-016/08 H5N1 (Influenza A virus A/chicken/Vietnam/NCVD-016/2008(H5N1)); assay: protein microarray, purified IgG, trimeric HA
[17] = target: recombinant homotrimeric HA A/Netherlands/219/03 H7N7 (Influenza A virus A/Netherlands/219/03(H7N7)); assay: protein microarray, purified IgG, trimeric HA
[18] = target: T1, recombinant soluble homotrimeric HA of …; assay: HA microarray, BCC supernatant
[19] = target: T2, recombinant soluble homotrimeric HA of …; assay: HA microarray, BCC supernatant
[20] = target: T3, recombinant soluble homotrimeric HA of …; assay: HA microarray, BCC supernatant
[21] = target: T4, recombinant soluble homotrimeric HA of …; assay: HA microarray, BCC supernatant
[22] = target: recombinant soluble homotrimeric HA of A/Netherlands/219/03 (H7N7) (Influenza A virus A/Netherlands/219/03(H7N7)); assay: HA microarray, BCC supernatant
[23] = target: recombinant homotrimeric HA A/Hong Kong/1073/99 H9N2 (Influenza A virus A/Hong Kong/1073/99 (H9N2)); assay: protein microarray, purified IgG, trimeric HA
[24] = target: recombinant homotrimeric HA A/northern shoveler/California/HKWF115/07 H6N4 (Influenza A virus A/northern shoveler/California/HKWF115/2007(H6N1)); assay: protein microarray, purified IgG, trimeric HA
[25] = target: recombinant soluble homotrimeric HA, A/South Carolina/1/18 H1N1 (Influenza A virus A/South Carolina/1/18 (H1N1)); assay: microarray, transfection SN IgG, trimeric HA
[26] = target: recombinant soluble homotrimeric HA, A/Netherlands/219/03 H7N7 (Influenza A virus A/Netherlands/219/03(H7N7)); assay: microarray, transfection SN IgG, trimeric HA
[27] = target: recombinant soluble homotrimeric HA, A/northern shoveler/California/HKWF115/07 H6N4 (Influenza A virus A/northern shoveler/California/HKWF115/2007(H6N1)); assay: microarray, transfection SN IgG, trimeric HA
[28] = target: recombinant soluble homotrimeric HA, A/Japan/305/57 H2N2 (Influenza A virus A/Japan/305/1957(H2N2)); assay: microarray, transfection SN IgG, trimeric HA
[29] = target: recombinant soluble homotrimeric HA, A/Solomon Islands/3/06 H1N1 (Influenza A virus A/Solomon Islands/3/2006(H1N1)); assay: microarray, transfection SN IgG, trimeric HA
[30] = target: recombinant soluble homotrimeric HA, A/Wisconsin/67/05 H3N2 (Influenza A virus A/Wisconsin/67/2005(H3N2)); assay: microarray, transfection SN IgG, trimeric HA
[31] = target: recombinant soluble homotrimeric HA, A/chicken/Vietnam/NCVD-016/08 H5N1 (Influenza A virus A/chicken/Vietnam/NCVD-016/2008(H5N1)); assay: microarray, transfection SN IgG, trimeric HA
[32] = target: recombinant soluble homotrimeric HA, A/swine/Ontario/01911-2/99 H4N6 (Influenza A virus A/Swine/Ontario/01911-2/99 (H4N6)); assay: microarray, transfection SN IgG, trimeric HA
[33] = target: recombinant soluble homotrimeric HA, A/Egypt/3300-NAMRU3/08 H5N1 (Influenza A virus A/Egypt/3300-NAMRU3/2008(H5N1)); assay: microarray, transfection SN IgG, trimeric HA
[34] = target: recombinant soluble homotrimeric HA, A/California/4/09 H1N1 (Influenza A virus A/California/04/2009(H1N1)); assay: microarray, transfection SN IgG, trimeric HA
[35] = target: recombinant soluble homotrimeric HA, A/duck/Yangzhou/02/05 H8N4 (Influenza A virus A/duck/Yangzhou/02/2005(H8N4)); assay: microarray, transfection SN IgG, trimeric HA
[36] = target: recombinant soluble homotrimeric HA of A/northern shoveler/California/HKWF115/07 (H6) (Influenza A virus A/northern shoveler/California/HKWF115/2007(H6N1)); assay: HA microarray, BCC supernatant
[37] = target: recombinant soluble homotrimeric HA of A/Solomon Islands/3/06 (H1N1) (Influenza A virus A/Solomon Islands/3/2006(H1N1)); assay: HA microarray, BCC supernatant
[38] = target: recombinant soluble homotrimeric HA of A/California/4/09 (H1N1) (Influenza A virus A/California/04/2009(H1N1)); assay: HA microarray, BCC supernatant

B1: TCN-545 (5082_I15) (antibody, V domains shown)
VH: QVQLQQWGAGLLKPSETLSLSCAVFGGSFSDYYWTWIRQPPGKGLEWIGEIKHSGRTNYNPSLESRVTISVDTSKNQFSLKLSSVTAADTAIYYCARGTDPDTEGYCRSGSCSAFDFWGQGTLVTVSS
VL: EIVLTQSPGTLSLSPGERATLSCRASHFVNYRSLAWYQQTPGQVPRLLIYGASTRATGIPDRFSGSGSGTDFTLTISRLEPEDFAVYFCQQYGGSPRYTFGQGTRLEIK
Trimeric HA Binding: RLU [1]: 42900 RLU
Trimeric HA Binding: RLU [2]: 900 RLU
Trimeric HA Binding: RLU [3]: 3230 RLU
Trimeric HA Binding: RLU [4]: 2940 RLU
Trimeric HA Binding: RLU [5]: 32000 RLU
Trimeric HA Binding: RLU [6]: 1360 RLU
Trimeric HA Binding: RLU [7]: 13200 RLU
Trimeric HA Binding: RLU [8]: 672 RLU
Trimeric HA Binding: RLU [9]: 1400 RLU
Trimeric HA Binding: RLU [10]: 23700 RLU
Trimeric HA Binding: RLU [11]: 289 RLU
Trimeric HA Binding: RLU [12]: 262 RLU
Trimeric HA Binding: RLU [13]: 396 RLU
Trimeric HA Binding: RLU [14]: 1410 RLU
Trimeric HA Binding: RLU [15]: 193 RLU
Trimeric HA Binding: RLU [16]: 679 RLU
Trimeric HA Binding: RLU [17]: 1490 RLU
Trimeric HA Binding: RLU [18]: 235 RLU
Trimeric HA Binding: RLU [19]: 392 RLU
Trimeric HA Binding: RLU [20]: 575 RLU
Trimeric HA Binding: RLU [21]: 157 RLU
Trimeric HA Binding: RLU [22]: 1180 RLU

B2: TCN-549 (5092_P04) (antibody, V domains shown)
VH: QVQLVQSGAEVKKPGASVKVSCKASGYTFTGYYMHWVRQAPGQGLEWMGWINPNSGDTNYAQKFQGRVTMTRDTSITTAYMELSSLRSDDTAVYYCARDSPYSSSWSFFDYWGQGPLVTVSS
VL: not shown
Trimeric HA Binding: RLU [8]: 196 RLU
Trimeric HA Binding: RLU [23]: 450 RLU
Trimeric HA Binding: RLU [9]: 413 RLU
Trimeric HA Binding: RLU [10]: 27200 RLU
Trimeric HA Binding: RLU [11]: 72 RLU
Trimeric HA Binding: RLU [24]: 112 RLU
Trimeric HA Binding: RLU [13]: 166 RLU
Trimeric HA Binding: RLU [14]: 6920 RLU
Trimeric HA Binding: RLU [16]: 177 RLU
Trimeric HA Binding: RLU [17]: 193 RLU
Trimeric HA Binding: RLU [25]: 2340 RLU
Trimeric HA Binding: RLU [26]: 8480 RLU
Trimeric HA Binding: RLU [27]: 996 RLU
Trimeric HA Binding: RLU [28]: 1080 RLU
Trimeric HA Binding: RLU [29]: 640 RLU
Trimeric HA Binding: RLU [30]: 51600 RLU
Trimeric HA Binding: RLU [31]: 1600 RLU
Trimeric HA Binding: RLU [32]: 1880 RLU
Trimeric HA Binding: RLU [33]: 18600 RLU
Trimeric HA Binding: RLU [34]: 622 RLU
Trimeric HA Binding: RLU [35]: 9450 RLU
Trimeric HA Binding: RLU [19]: 498 RLU
Trimeric HA Binding: RLU [20]: 30900 RLU
Trimeric HA Binding: RLU [21]: 387 RLU
Trimeric HA Binding: RLU [36]: 1100 RLU
Trimeric HA Binding: RLU [37]: 284 RLU
Trimeric HA Binding: RLU [38]: 338 RLU
Trimeric HA Binding: RLU [22]: 1130 RLU
